Measured values: patent publication US20080274112A1, “Nogo Receptor Antagonists” (priority 2003, published 2008)

Columns and labels:
MAG + sNogoR344-Fc = molecular target: T1, MAG + sNogoR344-Fc (Rattus norvegicus, UniProt Q99M75, A303T/C287S/C43R/E284G/T53A); assay: mAb/Fab inhibition of MAG binding to sNogoR344-Fc (ELISA)
T1 construct: amino acid residues 26-344 of rat Nogo receptor-1; made in house
T1 sequence (Q99M75 26-344 C43R/T53A/E284G/C287S/A303T): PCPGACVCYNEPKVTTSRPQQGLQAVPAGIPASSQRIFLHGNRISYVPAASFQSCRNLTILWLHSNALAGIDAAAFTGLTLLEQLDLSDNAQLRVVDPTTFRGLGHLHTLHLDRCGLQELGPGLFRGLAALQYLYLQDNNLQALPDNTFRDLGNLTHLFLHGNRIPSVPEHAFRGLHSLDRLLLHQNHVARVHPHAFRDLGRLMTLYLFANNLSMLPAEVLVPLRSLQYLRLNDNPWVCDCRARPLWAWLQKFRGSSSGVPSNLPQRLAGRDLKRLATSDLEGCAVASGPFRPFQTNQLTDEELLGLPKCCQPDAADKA
Method: 0.5 μg of a soluble Nogo receptor-1 fusion protein comprising amino acid residues 26-344 of rat Nogo receptor-1 and the hinge and Fc region of the rat IgG1 molecule (sNogoR344-Fc) produced as described below was immobilized on 250 μg of protein-A- or wheatgerm agglutinin-conjugated SPA beads (Amersham Pharmacia Biotech) for 2 hours at 25° C. SPA beads coupled with Fc-sNogoR-1, anti-Nogo receptor-1 mAb and 1 μl ^125I-Nogo66 (Amersham, 2000 Ci/mmol, 1 nM) in 50 μl of the HEPES-buffered incubation medium (10 mM HEPES, pH 7.4, 0.1% bovine serum albumin, 0.1% ovalbumin, 2 mM MgCl2, 2 mM CaCl2 and protease inhibitors) was added to each sample well. After 16 hours, radioactivity was measured in quadruplicate samples using a TopCount® (Packard). IC50 values were calculated from a curve-fit analysis (FIG. 3) (PRISM, GraphPad Software, NJ). In some experiments, we also used AP-ligand conjugates (e.g. AP-Nogo66) and detected binding by monitoring alkaline phosphatase activity. We also assayed the ability of the mAbs to block binding of the ligands MAG-Fc and AP-OM-gp to Nogo receptor-1.
The calculated IC50 for Nogo66 for 7E11 and 1H2 were 400 nM and 60 nM, respectively. The data from ELISAs monitoring mAb-mediated inhibition of binding of the three ligands to Nogo receptor-1 are summarized in Table 6.
We also performed ELISA binding assays using the Fab-phage 14D5.

[1] = molecular target: T2, rat NgR1 (sNgR310) fragments (Rattus norvegicus, UniProt Q99M75, C43R/T53A); assay: Western blot of acid/CNBr fragments of sNgR310 probed with 7E11; format: binding
T2 construct: made in house
T2 sequence (Q99M75 27-122 C43R/T53A): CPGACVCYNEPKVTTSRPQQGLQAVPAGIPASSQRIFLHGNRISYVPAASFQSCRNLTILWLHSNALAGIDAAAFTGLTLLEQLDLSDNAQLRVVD
Method: (§1) A recombinant fragment of the rat NgR1 that contains all 8 LRR domains and the N- and C-terminal caps (sNgR310) was treated with either acid or cyanogen bromide (CNBr) and separated the fragments by gel electrophoresis. Untreated sNgR310 migrates with an apparent molecular weight of 42 kDa. Acid treatment of sNgR310 produced two major cleavage products of 15 kDa (aa 27-aa 122) and 30 kDa (aa 123-aa 310). CNBr treatment generated three fragments, a 33/35 kDa doublet (aa 27-aa 229), which may represent fragments with heterogeneous glycosylation, a 10 kDa product (aa 241-aa 310), and an 11-amino-acid fragment (aa 230-aa 240), which is not retained on the gel. […] Both the 15 kDa acid fragment and the 35 kDa CNBr fragment contained the sequence LDLSDNAQLRVVDPTT (SEQ ID NO: 1), consistent with 7E11 binding to a single epitope on NgR1.

[2] = molecular target: T3, rat NgR1 (sNgR310) fragments (Rattus norvegicus, UniProt Q99M75, A303T/C287S/E284G); assay: as above; format: binding
T3 construct: made in house
T3 sequence (Q99M75 241-310 E284G/C287S/A303T): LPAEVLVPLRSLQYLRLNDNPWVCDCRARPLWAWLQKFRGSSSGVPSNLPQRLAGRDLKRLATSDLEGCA
Method: as §1

[3] = molecular target: T4, rat NgR1 (sNgR310) fragments (Rattus norvegicus, UniProt Q99M75, A303T/C287S/C43R/E284G/T53A); assay: as above; format: binding
T4 construct: made in house
T4 sequence (Q99M75 27-310 C43R/T53A/E284G/C287S/A303T): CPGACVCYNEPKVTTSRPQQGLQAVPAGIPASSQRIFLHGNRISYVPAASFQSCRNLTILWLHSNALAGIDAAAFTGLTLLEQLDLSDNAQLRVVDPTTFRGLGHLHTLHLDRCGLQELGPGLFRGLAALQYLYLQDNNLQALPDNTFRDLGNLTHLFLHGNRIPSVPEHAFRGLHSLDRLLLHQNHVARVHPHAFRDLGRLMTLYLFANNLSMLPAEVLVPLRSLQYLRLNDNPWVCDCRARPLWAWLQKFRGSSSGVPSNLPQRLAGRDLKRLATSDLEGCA
Method: as §1

[4] = molecular target: T5, rat NgR1 (sNgR310) fragments (Rattus norvegicus, UniProt Q99M75, C43R/T53A); assay: as above; format: binding; remark: listed apart in the source
T5 construct: made in house
T5 sequence (Q99M75 27-229 C43R/T53A): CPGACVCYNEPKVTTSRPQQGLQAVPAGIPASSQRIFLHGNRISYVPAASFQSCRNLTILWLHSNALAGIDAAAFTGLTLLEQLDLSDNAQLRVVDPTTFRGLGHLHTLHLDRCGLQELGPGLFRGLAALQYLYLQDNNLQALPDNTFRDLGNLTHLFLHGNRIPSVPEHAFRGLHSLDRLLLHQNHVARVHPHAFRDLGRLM
Method: as §1

[5] = molecular target: T6, rat NgR1 (sNgR310) fragments (Rattus norvegicus, UniProt Q99M75, A303T/C287S/E284G); assay: as above; format: binding; remark: listed apart in the source
T6 construct: made in house
T6 sequence (Q99M75 123-310 E284G/C287S/A303T): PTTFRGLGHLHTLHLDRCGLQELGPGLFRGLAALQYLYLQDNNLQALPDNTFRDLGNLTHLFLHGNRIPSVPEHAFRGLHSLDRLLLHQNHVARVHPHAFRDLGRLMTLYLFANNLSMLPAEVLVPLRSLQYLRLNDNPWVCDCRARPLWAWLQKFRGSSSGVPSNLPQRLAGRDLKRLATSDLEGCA
Method: as §1

mouse NgR1 = molecular target: T7, mouse NgR1 (Mus musculus, UniProt Q99PI8); assay: Antibody binding to mouse Nogo receptor-1
T7 sequence (Q99PI8 27-447): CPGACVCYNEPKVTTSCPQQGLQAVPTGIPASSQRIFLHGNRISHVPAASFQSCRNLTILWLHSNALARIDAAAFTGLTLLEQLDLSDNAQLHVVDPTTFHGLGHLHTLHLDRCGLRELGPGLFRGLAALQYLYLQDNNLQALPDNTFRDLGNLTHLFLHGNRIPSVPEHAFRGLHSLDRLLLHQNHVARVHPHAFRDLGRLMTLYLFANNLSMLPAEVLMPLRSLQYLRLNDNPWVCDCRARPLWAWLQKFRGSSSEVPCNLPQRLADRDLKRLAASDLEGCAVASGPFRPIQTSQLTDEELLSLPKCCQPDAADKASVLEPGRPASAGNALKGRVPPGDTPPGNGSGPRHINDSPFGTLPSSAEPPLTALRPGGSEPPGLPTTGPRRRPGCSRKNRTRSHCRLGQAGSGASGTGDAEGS

B1: 7E11: murine monoclonal anti-Nogo receptor-1 antibody, IgG1 kappa, ATCC PTA-4587; immunogen rat Nogo receptor-1 residues 110-125 (antibody, V domains shown)
VH: VQLQESGAELVMPGASVKMSCKASGYTFTDYWMHWVKQRPGQGLEWIGAIDPSDSYSSYNQNFKGKATLTVDGSSSTAYMQLSSLTSEDSAVYYCARRITEAGAWFAYWGQGTTVT
VL: DVVMTQTPLSLPVSLGDQASISCRSSQSLVHSNGNTYLHWYLQKPGQSPKLLIYKVSNRFSGVPDRFSGSGSGTDFTLKISRVDAEDLGVYFCSQSTHVPFTFGGGTKLEIKRADAAPTVSISHH
- inhibition of binding of MAG to sNogoR344-Fc (MAG + sNogoR344-Fc): inhibited binding
- percent displacement, MAG + sNogoR344-Fc (MAG + sNogoR344-Fc; 30 nM antibody): 30 nM (60%)
- EC50 (MAG + sNogoR344-Fc; curve-fit analysis): 500 nM
- 7E11 binding to 15 kDa acid fragment (aa 27-aa 122) [1]: bound
- 7E11 binding to 10 kDa CNBr fragment (aa 241-aa 310) [2]: did not bind
- 7E11 binding to intact rat NgR1 (aa 27-aa 310) [3]: bound
- 7E11 binding to 35 kDa CNBr fragment (aa 27-aa 229) [4]: bound
- 7E11 binding to 30 kD acid fragment (aa 123-aa 310) [5]: did not bind
- binding to mouse NgR1 (mouse NgR1): poorly
